# Literature values as cited in patent US20150182494A1, “METHOD OF MANAGING DIABETIC FOOT ULCERS, PRESSURE ULCERS, VENOUS LEG ULCERS AND ASSOCIATED COMPLICATION” (INDUS BIOTECH PRIVATE LIMITED, priority 2012, published 2015).
# Details: patients treated with 3 or more tubes
substance,measurement,value
becalpermin [Regranex gel],"Mortality secondary to malignancy, in words",increased rate of mortality secondary to malignancy
